{
  "source": "paper PMC7101349",
  "about": "“Synthetic antibodies against BRIL as universal fiducial marks for single−particle cryoEM structure determination of membrane proteins” (Nature Communications, 2020)",
  "conditions_in_all_cases": "both partners purified",
  "key": {"His10-BRIL": {"target": "T1, His10-BRIL (Escherichia coli (engineered cytochrome …, stabilised))", "T1 construct": "BRIL, an engineered variant of apocytochrome b562; Immobilised by its N-terminal His10 tag for SPR; also called wt BRIL; source: E. coli BL21 (DE3), purified (Ni-NTA); not shown: His10, N-terminal, kept", "assay": "SPR; His10-BRIL immobilised on a nitrilotriacetic acid sensor chip via the N-terminal His10 tag; 2-fold dilution series of sABs at 30 μl/min; 20 °C; BIACORE 3000; 1:1 interaction model"}, "[1]": {"target": "T2, BRIL-AAA-KcsA (construct 2) (Escherichia coli (engineered cytochrome …, chimera))", "T2 construct": "BRIL, an engineered variant of apocytochrome b562, in place of the N-terminal helix of KcsA; helical linker; potassium channel KcsA; the N-terminal helix (residues 1-23) replaced by BRIL and linker; also called three residues (-AAA-) linker construct; source: E. coli BL21(DE3)plysS, purified (Talon, SEC) in DDM", "assay": "SEC; analytical SEC (aSEC): BRIL-fused targets (in detergent, nanodiscs or amphipols) mixed with 1.2–1.5-fold molar excess of sAB, 30 min on ice; Superdex 200 Increase or Superose 6 Increase; retention volume and gel electrophoresis"}, "[2]": {"target": "T3, BRIL-AAAA-KcsA (construct 3, 1 turn) (Escherichia coli (engineered cytochrome …, chimera))", "T3 construct": "BRIL, an engineered variant of apocytochrome b562, in place of the N-terminal helix of KcsA; helical linker, 1 turn; potassium channel KcsA; the N-terminal helix (residues 1-23) replaced by BRIL and linker; also called four residues or 1 turn (-AAAA-) linker construct; source: E. coli BL21(DE3)plysS, purified (Talon, SEC) in DDM", "assay": "SEC; analytical SEC (aSEC): BRIL-fused targets (in detergent, nanodiscs or amphipols) mixed with 1.2–1.5-fold molar excess of sAB, 30 min on ice; Superdex 200 Increase or Superose 6 Increase; retention volume and gel electrophoresis"}, "[3]": {"target": "T4, BRIL-AAAAA-KcsA (construct 4) (Escherichia coli (engineered cytochrome …, chimera))", "T4 construct": "BRIL, an engineered variant of apocytochrome b562, in place of the N-terminal helix of KcsA; helical linker; potassium channel KcsA; the N-terminal helix (residues 1-23) replaced by BRIL and linker; also called five residues (-AAAAA-) linker construct; source: E. coli BL21(DE3)plysS, purified (Talon, SEC) in DDM", "assay": "SEC; analytical SEC (aSEC): BRIL-fused targets (in detergent, nanodiscs or amphipols) mixed with 1.2–1.5-fold molar excess of sAB, 30 min on ice; Superdex 200 Increase or Superose 6 Increase; retention volume and gel electrophoresis"}, "[4]": {"target": "T5, BRIL-AARAAA-KcsA (construct 5) (Escherichia coli (engineered cytochrome …, chimera))", "T5 construct": "BRIL, an engineered variant of apocytochrome b562, in place of the N-terminal helix of KcsA; helical linker; potassium channel KcsA; the N-terminal helix (residues 1-23) replaced by BRIL and linker; also called six residues (-AARAAA-) linker construct; source: E. coli BL21(DE3)plysS, purified (Talon, SEC) in DDM", "assay": "SEC; analytical SEC (aSEC): BRIL-fused targets (in detergent, nanodiscs or amphipols) mixed with 1.2–1.5-fold molar excess of sAB, 30 min on ice; Superdex 200 Increase or Superose 6 Increase; retention volume and gel electrophoresis"}, "[5]": {"target": "T6, BRIL-AARAAAA-KcsA (construct 6) (Escherichia coli (engineered cytochrome …, chimera))", "T6 construct": "BRIL, an engineered variant of apocytochrome b562, in place of the N-terminal helix of KcsA; helical linker; potassium channel KcsA; the N-terminal helix (residues 1-23) replaced by BRIL and linker; also called seven residues (-AARAAAA-) linker construct; source: E. coli BL21(DE3)plysS, purified (Talon, SEC) in DDM", "assay": "SEC; analytical SEC (aSEC): BRIL-fused targets (in detergent, nanodiscs or amphipols) mixed with 1.2–1.5-fold molar excess of sAB, 30 min on ice; Superdex 200 Increase or Superose 6 Increase; retention volume and gel electrophoresis"}, "[6]": {"target": "T7, BRIL-2turn-KcsA (construct 7) (Escherichia coli (engineered cytochrome …, chimera))", "T7 construct": "BRIL, an engineered variant of apocytochrome b562, in place of the N-terminal helix of KcsA; helical linker, 2 turn; potassium channel KcsA; the N-terminal helix (residues 1-23) replaced by BRIL and linker; also called construct with 2-turn linker; source: E. coli BL21(DE3)plysS, purified (Talon, SEC) in DDM", "assay": "SEC; analytical SEC (aSEC): BRIL-fused targets (in detergent, nanodiscs or amphipols) mixed with 1.2–1.5-fold molar excess of sAB, 30 min on ice; Superdex 200 Increase or Superose 6 Increase; retention volume and gel electrophoresis"}, "[7]": {"target": "T8, BRIL-3turn-KcsA (construct 8) (Escherichia coli (engineered cytochrome …, chimera))", "T8 construct": "BRIL, an engineered variant of apocytochrome b562, in place of the N-terminal helix of KcsA; helical linker, 3 turn; potassium channel KcsA; the N-terminal helix (residues 1-23) replaced by BRIL and linker; source: E. coli BL21(DE3)plysS, purified (Talon, SEC) in DDM", "assay": "SEC; analytical SEC (aSEC): BRIL-fused targets (in detergent, nanodiscs or amphipols) mixed with 1.2–1.5-fold molar excess of sAB, 30 min on ice; Superdex 200 Increase or Superose 6 Increase; retention volume and gel electrophoresis"}},
  "data": [
    {"binder": "sAB24 (Fab, V domains shown, as the heavy chain of m3 (BAG2), with CDR-H1 32-37 FSSSSI in place of VVDFSL; as the light chain of m3 (BAG2); Parent of BAG2; also called wt sAB24; wt sAB; source: E. coli BL21(gold), purified) VH: EVQLVESGGGLVQPGGSLRLSCAASGFNFSSSSIHWVRQAPGKGLEWVAYISSSSGSTSYADSVKGRFTISADTSKNTAYLQMNSLRAEDTAVYYCARWGYWPGEPWWKAFDYWGQGTLVTVSS VL: DIQMTQSPSSLSASVGDRVTITCRASQSVSSAVAWYQQKPGKAPKLLIYSASSLYSGVPSRFSGSRSGTDFTLTISSLQPEDFATYYCQQYLYYSLVTFGQGTKVEIK", "values": [
      {"measurement": "Kd", "setting": "His10-BRIL", "value": "~23", "unit": "nM"}
    ]},
    {"binder": "sAB BAG2 (Fab, V domains shown, Fab heavy chain; CDR-H1 residues 32-37 are VVDFSL; Fab light chain; humanized Fab scaffold of phage library E; source: E. coli BL21(gold), purified) VH: EVQLVESGGGLVQPGGSLRLSCAASGFNVVDFSLHWVRQAPGKGLEWVAYISSSSGSTSYADSVKGRFTISADTSKNTAYLQMNSLRAEDTAVYYCARWGYWPGEPWWKAFDYWGQGTLVTVSS VL: DIQMTQSPSSLSASVGDRVTITCRASQSVSSAVAWYQQKPGKAPKLLIYSASSLYSGVPSRFSGSRSGTDFTLTISSLQPEDFATYYCQQYLYYSLVTFGQGTKVEIK", "values": [
      {"measurement": "Kd", "setting": "His10-BRIL", "value": "~0.3", "unit": "nM"},
      {"measurement": "stoichiometry N", "setting": "[1]", "value": 4},
      {"measurement": "stoichiometry N", "setting": "[2]", "value": 4},
      {"measurement": "stoichiometry N", "setting": "[3]", "value": 4},
      {"measurement": "stoichiometry N", "setting": "[4]", "value": 4},
      {"measurement": "stoichiometry N", "setting": "[5]", "value": 4},
      {"measurement": "stoichiometry N", "setting": "[6]", "value": 4},
      {"measurement": "stoichiometry N", "setting": "[7]", "value": 4}
    ]},
    {"binder": "BAG2 S36A (Fab, V domains shown, as the heavy chain of m3 (BAG2) with the stated change in CDR-H1; as the light chain of m3 (BAG2)) VH: EVQLVESGGGLVQPGGSLRLSCAASGFNVVDFALHWVRQAPGKGLEWVAYISSSSGSTSYADSVKGRFTISADTSKNTAYLQMNSLRAEDTAVYYCARWGYWPGEPWWKAFDYWGQGTLVTVSS VL: DIQMTQSPSSLSASVGDRVTITCRASQSVSSAVAWYQQKPGKAPKLLIYSASSLYSGVPSRFSGSRSGTDFTLTISSLQPEDFATYYCQQYLYYSLVTFGQGTKVEIK", "values": [
      {"measurement": "Kd", "setting": "His10-BRIL", "value": 5.3, "unit": "nM"}
    ]},
    {"binder": "BAG2 F35A (Fab, V domains shown, as the heavy chain of m3 (BAG2) with the stated change in CDR-H1; as the light chain of m3 (BAG2)) VH: EVQLVESGGGLVQPGGSLRLSCAASGFNVVDASLHWVRQAPGKGLEWVAYISSSSGSTSYADSVKGRFTISADTSKNTAYLQMNSLRAEDTAVYYCARWGYWPGEPWWKAFDYWGQGTLVTVSS VL: DIQMTQSPSSLSASVGDRVTITCRASQSVSSAVAWYQQKPGKAPKLLIYSASSLYSGVPSRFSGSRSGTDFTLTISSLQPEDFATYYCQQYLYYSLVTFGQGTKVEIK", "values": [
      {"measurement": "Kd", "setting": "His10-BRIL", "value": 7.6, "unit": "nM"}
    ]}
  ]
}
